# Columns and labels:
# [1] = system: human neurons; assay: Neuronal cell density (NLS-TdTomato-positive nuclei); type: cell-based
# Protocol: The prepared aliquots of Aβ peptides were added directly to the culture media during each routine half-media change. To support optimal neuronal development, maturation, and function, while preserving essential factors released by neurons and glia, fresh media supplemented with Aβ was provided every other day until DIV10, and then once weekly until DIV45. […] During each media change, the Aβ peptides were introduced into the cultures to achieve final concentrations of 0.2 μM, 0.15 μM, 0.1 μM, 0.05 μM, 0.025 μM, and 0.005 μM. For scrambled and inverted sequence peptides, only the 0.2 μM and 0.025 μM concentrations were tested. At DIV6, we initiated a half-media replacement protocol in which 50% of the old culture medium was carefully removed and replaced with fresh medium containing Aβ peptides at twice the intended final concentration. […] For example, to achieve a final concentration of 0.2 μM, the fresh medium added at DIV6 was prepared at 0.4 μM, yielding a uniform 0.2 μM concentration after mixing with the peptide-free half. Starting from DIV8 and onward, subsequent half-media changes replaced half of the existing medium with fresh medium containing Aβ at the same target concentration (e.g., 0.2 μM), since the remaining half already contained approximately that amount. This approach was designed to mimic a chronic treatment regimen, allowing us to investigate the long-term effects of the peptides on synapse formation and neuronal activity under sustained exposure conditions.
# To assess neuronal cytotoxicity induced by Aβ peptides, we employed a novel Td-Tomato cytotoxicity assay that we developed. Human neurons were infected at DIV 6 with a lentiviral vector carrying a plasmid encoding nuclear localization signal (NLS)-TdTomato under the control of the human Synapsin-1 promoter. The use of the Synapsin promoter ensured neuron-specific expression of Td-Tomato. […] When the neurons had reached full maturation, cells were examined for Td-Tomato localization. Neurons displaying cytoplasmic Td-Tomato were counted as indicators of cytotoxicity. […] For Aβ experiments, imaging and scoring were performed at DIV45, immediately after the final peptide exposure. Data were quantified by calculating the density of neurons with cytoplasmic Td-Tomato, normalized to control cultures, and presented graphically. To assess cell viability, the number of Td-Tomato–positive nuclei, which represent surviving neurons, was counted, normalized to control values, and reported in graphs.
# [2] = system: human neurons; assay: Quantification of synaptic puncta (Synapsin-1 and PSD95), confocal; type: cell-based; settings: chronic treatment, DIV45
# Protocol: Mature human iN cells were washed 3 times with PBS (Gibco) and fixed with 4% PFA (Electron Microscopy Science) and 4% sucrose (Sigma-Aldrich) in PBS for 10 minutes at room temperature. Cells were then washed three times with PBS, followed by permeabilization and blocking with 0.25% Triton-X-100 (Sigma-Aldrich), 2.5% bovine serum albumin (BSA) (GeminiBio) and 2,5% NGS (Sigma-Aldrich) for one hour at room temperature. Incubation with primary antibodies was performed overnight at 4°C in the corresponding blocking buffer ([41]). For endosome analyses, fixing solution contained only 4% PFA and the permeabilization was performed separately before the blocking step, using 0.1% Triton-X-100. Primary Antibodies used include rabbit monoclonal anti-Synapsin-1 (Yenzym antibodies, clone YZ6078, 1:1000 dilution), mouse monoclonal anti-PSD95 (Thermo Fisher Scientific, 7E3-1B8, 1:250 dilution), chicken polyclonal anti-MAP2 (EnCor, CPCA-MAP2, 1:1000 dilution), mouse monoclonal 6E10 (BioLegend, SIG-39320, 1:1000), rabbit monoclonal anti-Synaptophysin (homemade, P580 ([26])), and rabbit monoclonal anti-EEA1(Cell Signaling, C45B10, 1:1000 dilution). Cells were washed 3 times with PBS and incubated for 1 hour at room temperature with Alexa conjugated secondary antibodies: goat anti-chicken Alexa 647, goat anti-rabbit Alexa 546, goat anti-rabbit Alexa 488, and goat anti-mouse Alexa 488, all 1:500. […]
substance,measurement,setting,value
-.DAEFRHDSGYEVHHQKLVFFAGDVGSNKGAIIGLMVGGVVI.A [Aβ42^arctic],"Neuronal cell density, values normalized to Ctrl (Figure 1E)","[1]; 0.005 uM chronic DIV6-DIV45, DIV45, biological replicate 1",0.9504
same,"Neuronal cell density, values normalized to Ctrl (Figure 1E)","[1]; 0.005 uM chronic DIV6-DIV45, DIV45, biological replicate 2",0.943
same,"Neuronal cell density, values normalized to Ctrl (Figure 1E)","[1]; 0.005 uM chronic DIV6-DIV45, DIV45, biological replicate 3",0.9651
same,"Neuronal cell density, values normalized to Ctrl (Figure 1E)","[1]; 0.05 uM chronic DIV6-DIV45, DIV45, biological replicate 1",0.9651
same,"Neuronal cell density, values normalized to Ctrl (Figure 1E)","[1]; 0.05 uM chronic DIV6-DIV45, DIV45, biological replicate 2",0.9896
same,"Neuronal cell density, values normalized to Ctrl (Figure 1E)","[1]; 0.05 uM chronic DIV6-DIV45, DIV45, biological replicate 3",1.07
same,"Neuronal cell density, values normalized to Ctrl (Figure 1E)","[1]; 0.1 uM chronic DIV6-DIV45, DIV45, biological replicate 1",0.9054
same,"Neuronal cell density, values normalized to Ctrl (Figure 1E)","[1]; 0.1 uM chronic DIV6-DIV45, DIV45, biological replicate 2",0.8702
same,"Neuronal cell density, values normalized to Ctrl (Figure 1E)","[1]; 0.1 uM chronic DIV6-DIV45, DIV45, biological replicate 3",1.014
same,"Neuronal cell density, values normalized to Ctrl (Figure 1E)","[1]; 0.2 uM chronic DIV6-DIV45, DIV45, biological replicate 1",0.8081
same,"Neuronal cell density, values normalized to Ctrl (Figure 1E)","[1]; 0.2 uM chronic DIV6-DIV45, DIV45, biological replicate 2",0.8351
same,"Neuronal cell density, values normalized to Ctrl (Figure 1E)","[1]; 0.2 uM chronic DIV6-DIV45, DIV45, biological replicate 3",0.7942
same,Decrease of neuronal cell numbers,"[1]; higher concentrations, chronic exposure, DIV45",approximately 15%
same,Loss of synapses,[2]; high concentrations,greater than 55%
same,Effect on synapse numbers (in words),[2]; lower concentrations,did not increase synapse numbers
